Laboratory results from article PMC6704107.

Biological target: Adeno-associated virus receptor (AAVR), wild-type, PKD1-5 domains (UniProt Q8IZA0)
Assay: not given
Settings: not given

Chain of AAVR (Q8IZA0 whole entry): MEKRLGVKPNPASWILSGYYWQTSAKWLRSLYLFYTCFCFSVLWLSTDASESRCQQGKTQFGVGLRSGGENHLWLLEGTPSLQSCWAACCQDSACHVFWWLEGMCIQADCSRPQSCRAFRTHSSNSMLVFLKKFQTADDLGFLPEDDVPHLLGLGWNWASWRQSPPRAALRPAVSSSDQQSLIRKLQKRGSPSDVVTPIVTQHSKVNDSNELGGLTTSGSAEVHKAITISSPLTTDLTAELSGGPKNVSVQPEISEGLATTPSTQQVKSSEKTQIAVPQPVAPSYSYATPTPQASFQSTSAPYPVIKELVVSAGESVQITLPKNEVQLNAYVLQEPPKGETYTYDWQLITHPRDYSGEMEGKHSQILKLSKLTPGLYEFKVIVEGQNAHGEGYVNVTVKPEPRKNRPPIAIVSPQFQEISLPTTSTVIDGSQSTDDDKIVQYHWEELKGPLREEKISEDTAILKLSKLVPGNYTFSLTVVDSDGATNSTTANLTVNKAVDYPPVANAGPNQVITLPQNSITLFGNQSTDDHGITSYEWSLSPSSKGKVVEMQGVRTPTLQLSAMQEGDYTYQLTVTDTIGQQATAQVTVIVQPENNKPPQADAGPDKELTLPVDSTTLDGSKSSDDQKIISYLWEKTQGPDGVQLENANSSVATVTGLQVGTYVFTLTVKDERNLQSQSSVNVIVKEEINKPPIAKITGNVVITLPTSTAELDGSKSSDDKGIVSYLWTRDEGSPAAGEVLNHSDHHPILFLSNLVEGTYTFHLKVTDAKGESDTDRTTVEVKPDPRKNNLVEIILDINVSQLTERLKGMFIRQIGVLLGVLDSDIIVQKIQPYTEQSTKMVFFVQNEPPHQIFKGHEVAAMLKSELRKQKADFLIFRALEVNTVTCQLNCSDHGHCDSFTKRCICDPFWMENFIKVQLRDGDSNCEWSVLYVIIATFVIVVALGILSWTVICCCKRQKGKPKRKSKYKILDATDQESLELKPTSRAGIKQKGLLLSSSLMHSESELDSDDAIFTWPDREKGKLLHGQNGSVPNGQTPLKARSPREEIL

| Substance | transduction of HEK293T cells (endogenous AAVR) by the mutated AAV5-GFP, functional titer against wt AAV5 |
| --- | --- |
| AAV5 particle with capsid mutation E708A (from UniProt Q9YIJ1 1-724) (complex) | 50 % of wt AAV5 |
| AAV5 particle with capsid mutation Q532A (from UniProt Q9YIJ1 1-724) (complex) | 50 % of wt AAV5 |
| AAV5 particle with capsid mutation Y542A (from UniProt Q9YIJ1 1-724) (complex) | 15 % of wt AAV5 |

Biological target: Adeno-associated virus 1 (AAV1) particle, wild-type capsid (adeno-associated virus 1 (AAV1)) (UniProt Q9WBP8)
Assay: not given
Settings: not given

| Substance | AAV1-mCherry transduction of AAVR-silenced HEK293T cells expressing AAVR with this mutation (pcDNA3.1(+)-AAVR) (% of AAV1 infection) |
| --- | --- |
| AAVR PKD1-5 D435A (from UniProt Q8IZA0-1 1-1049) (receptor) | 70 |
| AAVR PKD1-5 T434A (from UniProt Q8IZA0-1 1-1049) (receptor) | 70 |

Biological target: AAV2 capsid (Adeno-associated virus 2) (UniProt P03135)
Assay: not given
Settings: cited from earlier work

| Substance | Kd [nM] |
| --- | --- |
| AAVR (from UniProt Q8IZA0) | 57 |

Biological target: Adeno-associated virus 1 (AAV1) particle, wild-type capsid (adeno-associated virus 1 (AAV1)) (UniProt Q9WBP8)
Assay: SPR; Biacore T200; AAV1 or AAV5 particles immobilised on a CM5 chip by amide coupling; wt or mutated AAVR flowed over; 30 μl/min, 25 °C, PBS
Settings: not given

| Substance | Kd [nM] |
| --- | --- |
| AAVR PKD1-5 K464A (from UniProt Q8IZA0-1 1-1049) (receptor) | 1.32 |
| Adeno-associated virus receptor (AAVR), wild-type, PKD1-5 domains (from UniProt Q8IZA0-1 1-1049) | 13.9 |

Biological target: Adeno-associated virus 5 (AAV5) particle, wild-type capsid (adeno-associated virus 5 (AAV5)) (UniProt Q9YIJ1)
Assay: as above
Settings: not given

| Substance | fold decrease of binding affinity against wt AAVR [fold] | Kd [nM] |
| --- | --- | --- |
| AAVR PKD1-5 D354A (from UniProt Q8IZA0-1 1-1049) (receptor) | 100 | – |
| AAVR PKD1-5 I349A (from UniProt Q8IZA0-1 1-1049) (receptor) | – | 7 |
| AAVR PKD1-5 K399A (from UniProt Q8IZA0-1 1-1049) (receptor) | – | 71900 |
| AAVR PKD1-5 S356A (from UniProt Q8IZA0-1 1-1049) (receptor) | 100 | – |
| AAVR PKD1-5 T397A (from UniProt Q8IZA0-1 1-1049) (receptor) | 100 | – |
| Adeno-associated virus receptor (AAVR), wild-type, PKD1-5 domains (from UniProt Q8IZA0-1 1-1049) | – | 287 |

Biological target: recombinant AAV1 particles (AAV1 capsid) (adeno-associated virus 1) (UniProt Q9WBP8)
Assay: SPR; Biacore T200; AAV1 or AAV5 particles immobilised on a CM5 chip by amide coupling (sodium acetate pH 4.5); wt or mutated AAVR flowed over at 30 ul/min, 25 C, PBS; triplicate experiments, mean with standard error
Settings: not given

| Substance | Kd [nM] |
| --- | --- |
| AAVR PKD1-5 D354A (from UniProt Q8IZA0-1 1-1049) (domain or fragment) | 17.4 |
| AAVR PKD1-5 E378A (from UniProt Q8IZA0-1 1-1049) (domain or fragment) | 19.9 |
| AAVR PKD1-5 I349A (from UniProt Q8IZA0-1 1-1049) (domain or fragment) | 18.5 |
| AAVR PKD1-5 K399A (from UniProt Q8IZA0-1 1-1049) (domain or fragment) | 17.5 |
| AAVR PKD1-5 L376A (from UniProt Q8IZA0-1 1-1049) (domain or fragment) | 16.7 |
| AAVR PKD1-5 R353A (from UniProt Q8IZA0-1 1-1049) (domain or fragment) | 20.5 |
| AAVR PKD1-5 S356A (from UniProt Q8IZA0-1 1-1049) (domain or fragment) | 12.2 |
| AAVR PKD1-5 T350A (from UniProt Q8IZA0-1 1-1049) (domain or fragment) | 14.2 |
| AAVR PKD1-5 T397A (from UniProt Q8IZA0-1 1-1049) (domain or fragment) | 17.7 |
| wild-type AAVR PKD1-5 domains with a C-terminal His-tag (from UniProt Q8IZA0-1 1-1049) (domain or fragment) | 16.2 |

Biological target: recombinant AAV5 particles (AAV5 capsid) (adeno-associated virus 5) (UniProt Q9YIJ1)
Assay: as above
Settings: not given

| Substance | Kd [nM] |
| --- | --- |
| AAVR PKD1-5 D429A (from UniProt Q8IZA0-1 1-1049) (domain or fragment) | 243 |
| AAVR PKD1-5 D435A (from UniProt Q8IZA0-1 1-1049) (domain or fragment) | 234 |
| AAVR PKD1-5 D436A (from UniProt Q8IZA0-1 1-1049) (domain or fragment) | 295 |
| AAVR PKD1-5 D437A (from UniProt Q8IZA0-1 1-1049) (domain or fragment) | 252 |
| AAVR PKD1-5 K438A (from UniProt Q8IZA0-1 1-1049) (domain or fragment) | 270 |
| AAVR PKD1-5 K464A (from UniProt Q8IZA0-1 1-1049) (domain or fragment) | 265 |
| AAVR PKD1-5 S425A (from UniProt Q8IZA0-1 1-1049) (domain or fragment) | 329 |
| AAVR PKD1-5 S431A (from UniProt Q8IZA0-1 1-1049) (domain or fragment) | 244 |
| AAVR PKD1-5 S433A (from UniProt Q8IZA0-1 1-1049) (domain or fragment) | 284 |
| AAVR PKD1-5 T426A (from UniProt Q8IZA0-1 1-1049) (domain or fragment) | 311 |
| AAVR PKD1-5 T434A (from UniProt Q8IZA0-1 1-1049) (domain or fragment) | 289 |
| AAVR PKD1-5 V427A (from UniProt Q8IZA0-1 1-1049) (domain or fragment) | 306 |
| AAVR PKD1-5 Y442A (from UniProt Q8IZA0-1 1-1049) (domain or fragment) | 269 |
